Source: the supplement of paper PMC9112550, “Optimization of the antimicrobial peptide Bac7 by deep mutational scanning” (BMC Biology, 2022)

Each sequence was assayed on Escherichia coli TOP10 (assay: shrunken log2 fold change of peptide-encoding DNA abundance (4.5 h post-induction vs induction); higher = less antimicrobial activity (less host growth inhibition)). Conditions: time post-induction: 4.5 h; library: site-saturation at positions 5, 18, 19, 20.
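Further: peptides expressed intracellularly from a pBAD plasmid library in pooled LB shake-flask culture, induced with 0.3% L-arabinose, DNA abundance read by NGS, three biological replicates, DESeq2 with apeglm shrinkage.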

| Sequence | shrunken log2 fold change |
| --- | --- |
| RRIRVRPPRLPRPRPRPCTIPRP | -0.0586 |
| RRIRERPPRLPRPRPRPTLEPRP | 0.034 |
| RRIRHRPPRLPRPRPRPMYNPRP | -0.833 |
| RRIRKRPPRLPRPRPRPSNHPRP | -0.347 |
| RRIRQRPPRLPRPRPRPYKCPRP | -0.334 |
| RRIRKRPPRLPRPRPRPTPAPRP | 1.41 |
| RRIRNRPPRLPRPRPRPWKFPRP | -0.0447 |
| RRIRVRPPRLPRPRPRPMGHPRP | 0.0767 |
| RRIRERPPRLPRPRPRPIFAPRP | 0.21 |
| RRIRYRPPRLPRPRPRPAFQPRP | -0.00804 |
| RRIRQRPPRLPRPRPRPSFHPRP | -0.351 |
| RRIRQRPPRLPRPRPRPQTRPRP | -0.0472 |
| RRIRGRPPRLPRPRPRPRNEPRP | 0.725 |
| RRIRCRPPRLPRPRPRPMWTPRP | -0.0185 |
| RRIRWRPPRLPRPRPRPNLRPRP | 0.174 |
| RRIRIRPPRLPRPRPRPVINPRP | -0.198 |
| RRIRERPPRLPRPRPRPSNCPRP | -0.0637 |
| RRIRGRPPRLPRPRPRPNLKPRP | 0.189 |
| RRIRHRPPRLPRPRPRPLYVPRP | -0.272 |
| RRIRWRPPRLPRPRPRPKPEPRP | 0.351 |
| RRIRDRPPRLPRPRPRPDWYPRP | -0.0602 |
| RRIRMRPPRLPRPRPRPAQPPRP | 0.586 |
| RRIRIRPPRLPRPRPRPVCQPRP | -0.202 |
| RRIRHRPPRLPRPRPRPQSVPRP | -0.267 |
| RRIRGRPPRLPRPRPRPKFKPRP | 0.383 |

| Sequence | shrunken log2 fold change |
| --- | --- |
| RRIRARPPRLPRPRPRPVYLPRP | -0.622 |
| RRIRTRPPRLPRPRPRPSILPRP | -0.781 |
| RRIRQRPPRLPRPRPRPYVQPRP | -0.00748 |
| RRIRDRPPRLPRPRPRPSHPPRP | -0.425 |
| RRIRLRPPRLPRPRPRPQRAPRP | 0.309 |
| RRIRFRPPRLPRPRPRPDVEPRP | 0.00816 |
| RRIRVRPPRLPRPRPRPRTEPRP | 0.165 |
| RRIRWRPPRLPRPRPRPLGFPRP | 0.239 |
| RRIRPRPPRLPRPRPRPMVMPRP | -0.0504 |
| RRIRYRPPRLPRPRPRPYDTPRP | -0.149 |
| RRIRLRPPRLPRPRPRPTNDPRP | -0.288 |
| RRIRDRPPRLPRPRPRPHYEPRP | -0.0202 |
| RRIRCRPPRLPRPRPRPDHMPRP | -0.0636 |
| RRIRCRPPRLPRPRPRPNGMPRP | -0.398 |
| RRIRSRPPRLPRPRPRPYNQPRP | -0.642 |
| RRIRDRPPRLPRPRPRPMTWPRP | 0.000751 |
| RRIRERPPRLPRPRPRPSRWPRP | 1.41 |
| RRIRLRPPRLPRPRPRPHNKPRP | -0.59 |
| RRIRCRPPRLPRPRPRPRQDPRP | -0.0742 |
| RRIRCRPPRLPRPRPRPGNFPRP | -0.0984 |
| RRIRRRPPRLPRPRPRPKPLPRP | 0.474 |
| RRIRDRPPRLPRPRPRPLGEPRP | 0.147 |
| RRIRRRPPRLPRPRPRPGLLPRP | 0.0882 |
| RRIRSRPPRLPRPRPRPMQTPRP | 0.291 |
| RRIRGRPPRLPRPRPRPIMPPRP | 0.0639 |

| Sequence | shrunken log2 fold change |
| --- | --- |
| RRIRSRPPRLPRPRPRPKAKPRP | 0.626 |
| RRIRHRPPRLPRPRPRPRLYPRP | 0.114 |
| RRIRDRPPRLPRPRPRPSASPRP | 0.259 |
| RRIRYRPPRLPRPRPRPRMTPRP | -0.131 |
| RRIRYRPPRLPRPRPRPCTIPRP | -0.118 |
| RRIRFRPPRLPRPRPRPKAEPRP | 0.00911 |
| RRIRKRPPRLPRPRPRPFSMPRP | -0.489 |
| RRIRQRPPRLPRPRPRPFYNPRP | -0.739 |
| RRIRERPPRLPRPRPRPWTSPRP | -0.028 |
| RRIRNRPPRLPRPRPRPAHEPRP | -0.0423 |
| RRIRQRPPRLPRPRPRPGMRPRP | 0.941 |
| RRIRVRPPRLPRPRPRPSSWPRP | -0.062 |
| RRIRQRPPRLPRPRPRPVSAPRP | 0.104 |
| RRIRMRPPRLPRPRPRPIWKPRP | 0.00523 |
| RRIRTRPPRLPRPRPRPYCDPRP | -0.512 |
| RRIRARPPRLPRPRPRPKSKPRP | 0.257 |
| RRIRDRPPRLPRPRPRPWRVPRP | 0.28 |
| RRIRSRPPRLPRPRPRPDFKPRP | -0.0946 |
| RRIRMRPPRLPRPRPRPKVFPRP | 0.0743 |
| RRIRIRPPRLPRPRPRPRLIPRP | -0.199 |
| RRIRLRPPRLPRPRPRPTECPRP | -0.243 |
| RRIRMRPPRLPRPRPRPCRDPRP | 0.244 |
| RRIRWRPPRLPRPRPRPYHMPRP | -0.591 |
| RRIRTRPPRLPRPRPRPLVMPRP | -0.0423 |
| RRIRFRPPRLPRPRPRPKNMPRP | -0.724 |

| Sequence | shrunken log2 fold change |
| --- | --- |
| RRIRGRPPRLPRPRPRPQRTPRP | 0.853 |
| RRIRARPPRLPRPRPRPLYDPRP | -0.124 |
| RRIRNRPPRLPRPRPRPVPPPRP | 0.234 |
| RRIRNRPPRLPRPRPRPWRVPRP | 0.515 |
| RRIRVRPPRLPRPRPRPTTYPRP | -0.465 |
| RRIRGRPPRLPRPRPRPFCDPRP | 0.456 |
| RRIRPRPPRLPRPRPRPAVNPRP | -0.103 |
| RRIRGRPPRLPRPRPRPWVLPRP | 0.222 |
| RRIRDRPPRLPRPRPRPMGIPRP | 0.0303 |
| RRIRKRPPRLPRPRPRPCRHPRP | -0.00769 |
| RRIRQRPPRLPRPRPRPFGPPRP | 0.0675 |
| RRIRKRPPRLPRPRPRPIRQPRP | 0.0556 |
| RRIRGRPPRLPRPRPRPGAHPRP | 0.755 |
| RRIRPRPPRLPRPRPRPSHYPRP | -0.479 |
| RRIRYRPPRLPRPRPRPTIPPRP | -0.572 |
| RRIRARPPRLPRPRPRPFIRPRP | -0.27 |
| RRIRNRPPRLPRPRPRPEQMPRP | -0.0261 |
| RRIRMRPPRLPRPRPRPLFSPRP | 0.0255 |
| RRIRTRPPRLPRPRPRPEIKPRP | -0.0117 |
| RRIRYRPPRLPRPRPRPFQCPRP | -0.157 |
| RRIRGRPPRLPRPRPRPDCAPRP | 1.53 |
| RRIRKRPPRLPRPRPRPHVYPRP | 0.22 |
| RRIRYRPPRLPRPRPRPYCPPRP | -0.848 |
| RRIRERPPRLPRPRPRPSNWPRP | -0.296 |
| RRIRCRPPRLPRPRPRPQVKPRP | 0.0486 |

| Sequence | shrunken log2 fold change |
| --- | --- |
| RRIRTRPPRLPRPRPRPICNPRP | -0.00195 |
| RRIRARPPRLPRPRPRPMTQPRP | 0.249 |
| RRIRGRPPRLPRPRPRPAFYPRP | 0.178 |
| RRIRWRPPRLPRPRPRPIMWPRP | 0.181 |
| RRIRARPPRLPRPRPRPAYEPRP | 0.0749 |
| RRIRYRPPRLPRPRPRPAMGPRP | -0.031 |
| RRIRERPPRLPRPRPRPNHHPRP | -0.845 |
| RRIRWRPPRLPRPRPRPSYPPRP | -0.254 |
| RRIRVRPPRLPRPRPRPTVRPRP | 0.126 |
| RRIRVRPPRLPRPRPRPPEWPRP | -0.00654 |
| RRIRSRPPRLPRPRPRPFNSPRP | -0.116 |
| RRIRRRPPRLPRPRPRPWHVPRP | -0.135 |
| RRIRHRPPRLPRPRPRPNCRPRP | -0.0986 |
| RRIRYRPPRLPRPRPRPSEHPRP | -0.488 |
| RRIRKRPPRLPRPRPRPEMFPRP | 0.0732 |
| RRIRWRPPRLPRPRPRPGDMPRP | 0.344 |
| RRIRWRPPRLPRPRPRPIYAPRP | -0.0827 |
| RRIRSRPPRLPRPRPRPIVPPRP | -0.0492 |
| RRIRARPPRLPRPRPRPSDCPRP | -0.164 |
| RRIRERPPRLPRPRPRPLVCPRP | 0.00932 |
| RRIRERPPRLPRPRPRPRKVPRP | 0.107 |
| RRIRSRPPRLPRPRPRPTEQPRP | -0.0196 |
| RRIRYRPPRLPRPRPRPGLCPRP | -0.0365 |
| RRIRMRPPRLPRPRPRPKCTPRP | 0.995 |
| RRIRKRPPRLPRPRPRPPEMPRP | 0.262 |

| Sequence | shrunken log2 fold change |
| --- | --- |
| RRIRIRPPRLPRPRPRPIFDPRP | -0.237 |
| RRIRMRPPRLPRPRPRPYAIPRP | -0.0168 |
| RRIRTRPPRLPRPRPRPKKLPRP | -0.298 |
| RRIRLRPPRLPRPRPRPCWGPRP | 0.00437 |
| RRIRHRPPRLPRPRPRPRIWPRP | 0.242 |
| RRIRKRPPRLPRPRPRPNHRPRP | -0.334 |
| RRIRNRPPRLPRPRPRPRSTPRP | -0.0419 |
| RRIRLRPPRLPRPRPRPIAYPRP | -0.0152 |
| RRIRTRPPRLPRPRPRPYPCPRP | -0.245 |
| RRIRTRPPRLPRPRPRPKQFPRP | -0.103 |
| RRIRYRPPRLPRPRPRPYWPPRP | -0.0534 |
| RRIRMRPPRLPRPRPRPHWCPRP | -0.153 |
| RRIRTRPPRLPRPRPRPTRHPRP | 0.237 |
| RRIRIRPPRLPRPRPRPNLVPRP | -0.175 |
| RRIRNRPPRLPRPRPRPRARPRP | 0.856 |
| RRIRQRPPRLPRPRPRPSMGPRP | -0.163 |
| RRIRQRPPRLPRPRPRPGETPRP | 0.0131 |
| RRIRFRPPRLPRPRPRPIRYPRP | -0.125 |
| RRIRDRPPRLPRPRPRPSRAPRP | 0.156 |
| RRIRRRPPRLPRPRPRPHPGPRP | 0.316 |
| RRIRTRPPRLPRPRPRPAYHPRP | -0.0827 |
| RRIRQRPPRLPRPRPRPVKKPRP | -0.0152 |
| RRIRHRPPRLPRPRPRPPWKPRP | 0.174 |
| RRIRQRPPRLPRPRPRPSVGPRP | 0.119 |
| RRIRERPPRLPRPRPRPEDFPRP | 0.089 |
